In publication PMC7884425 (2021) one finds Ka data, which are given here for 2 molecules.

Numbering of substitutions follows the chain as printed.

The chains are these.
T1: human HPF1 R239A (human, UniProt Q9NWY4 1-346, R239A)
T1 sequence: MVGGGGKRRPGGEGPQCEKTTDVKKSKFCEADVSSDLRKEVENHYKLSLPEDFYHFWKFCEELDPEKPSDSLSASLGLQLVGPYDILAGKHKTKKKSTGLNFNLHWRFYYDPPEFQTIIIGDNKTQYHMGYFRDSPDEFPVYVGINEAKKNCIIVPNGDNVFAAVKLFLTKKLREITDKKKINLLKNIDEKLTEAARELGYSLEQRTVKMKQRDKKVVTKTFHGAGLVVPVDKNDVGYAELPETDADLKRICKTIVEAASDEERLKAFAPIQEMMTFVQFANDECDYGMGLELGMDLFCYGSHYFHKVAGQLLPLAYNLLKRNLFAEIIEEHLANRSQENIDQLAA

T2: human HPF1 F280A (human, UniProt Q9NWY4 1-346, F280A)
T2 sequence: T1 sequence with A239R, F280A

T3: human HPF1 K307S (human, UniProt Q9NWY4 1-346, K307S)
T3 sequence: T1 sequence with A239R, K307S

T4: human HPF1 F139S (human, UniProt Q9NWY4 1-346, F139S)
T4 sequence: T1 sequence with F139S, A239R

T5: human HPF1 E138K (human, UniProt Q9NWY4 1-346, E138K)
T5 sequence: T1 sequence with E138K, A239R

T6: human HPF1 K216E (human, UniProt Q9NWY4 1-346, K216E)
T6 sequence: T1 sequence with K216E, A239R

B1: human HPF1 (histone PARylation factor 1), wild-type (natural protein)
chain: T1 sequence with A239R
B2: human PARP1-CAT ΔHD (661-678-GSGSGSGG-787-1014) (domain or fragment)
chain: TKSKLPKPVQDLIKMIFDGSGSGSGGKDPIDVNYEKLKTDIKVVDRDSEEAEIIRKYVKNTHATTHNAYDLEVIDIFKIEREGECQRYKPFKQLHNRRLLWHGSRTTNFAGILSQGLRIAPPEAPVTGYMFGKGIYFADMVSKSANYCHTSQGDPIGLILLGEVALGNMYELKHASHISKLPKGKHSVKGLGKTTPDPSANISLDGVDVPLGTGISSGVNDTSLLYNEYIVYDIAQVNLKYLLKLKFNFKTSLW

In test [1] the target is B2. The test can be described thus: ITC; replicate 2. On the technique in general: ITC needs no label: the signal is the heat of the interaction.
For a further test, the target named is PARP1 D756A (human, UniProt P09874 1-1014, D756A). The experiment in a line: ITC; in the presence of DNA.
The target of test [2] is T1, human HPF1 R239A. The test can be described thus: ITC; replicate 1.
The target in test [3] is T2, human HPF1 F280A. The experiment in a line: ITC; replicate 1.
Test [4] addresses T3, human HPF1 K307S. The experiment in a line: ITC; replicate 1.
Test [5] deals with T1, human HPF1 R239A. The test can be described thus: ITC; replicate 2.
Test [6] addresses T2, human HPF1 F280A. The experiment in a line: ITC; replicate 2.
For test [7], the target named is T3, human HPF1 K307S. The experiment in a line: ITC; replicate 2.
The target in test [8] is T4, human HPF1 F139S. The experiment in a line: ITC; replicate 1.
Test [9] deals with T5, human HPF1 E138K. The test can be described thus: ITC; replicate 1.
Test [10] addresses T4, human HPF1 F139S. The experiment in a line: ITC; replicate 2.
The target in another test is T6, human HPF1 K216E. The test can be described thus: ITC; replicate 2.
The target in test [11] is T5, human HPF1 E138K. The test can be described thus: ITC; replicate 2.

As to B1, the Ka amounted to 642000 M⁻¹ in test [1] and 333000 M⁻¹ with PARP1 D756A.

Regarding B2, the Ka in the test with human HPF1 R239A [2] worked out at 432000 M⁻¹; with human HPF1 F280A [3], 147000 M⁻¹; with human HPF1 K307S [4], 95700 M⁻¹; in the test with human HPF1 R239A [5] it was 402000 M⁻¹; with human HPF1 F280A [6], 212000 M⁻¹; with human HPF1 K307S [7], 123000 M⁻¹. Besides, the Ka in the test with human HPF1 F139S [8] was 400000 M⁻¹; in the test with human HPF1 E138K [9], 617000 M⁻¹; with human HPF1 F139S [10], 440000 M⁻¹; with human HPF1 K216E, 725000 M⁻¹; with human HPF1 E138K [11], 583000 M⁻¹.
